The results in this text go back to the nanobody polyreactivity screen of Harvey et al. (2022).

The nature of this data set: yeast display, Sf9 membrane polyspecificity reagent, FACS + sequencing; frameworks hold sequencing errors. Put shortly: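 A synthetic nanobody library was expressed on Saccharomyces cerevisiae BJ5465 by galactose induction for 36–48 hours. The library was stained for 1 hour at 4 °C with 10% biotinylated, detergent-solubilized Sf9 membrane reagent and enriched with streptavidin microbeads before FACS. Low and high (top ~1%) gates were set on anti-HA fluorescence for expression and streptavidin fluorescence for reagent binding, and each polyreactivity label reflects the gate of origin.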
As for “QVQLVESGGGLVQAGGSLRLSCAASGSTFSPYAMGWYRPAPGKERELVAAITSGGSTYYADSVKGRFTISRDNAKNTVYLQMNSLKPEDTAVYYCNVVYIRVRRYNYWGQGTQVTVSS”, the “polyreactivity (PSR sort gate)” value was “high polyreactivity”.
The entry for “QVQLVESGGGLVQAGGSLRLSCAASGFTFPHYAMGRYRQAPGKERELVAAINGGDTRTYYADSVKGRFTSSRDNAKNTVYLQRNSLKPEDTAVYYCAADREAGGTRLSRDYYWGQGTQVTVSS” is “high polyreactivity”; for “QVQLVESGGGVVQAGGSLRLSCAATGSRYWDYPMGWYRQAPGKERELVAAISTSGGSTYYADSVKGRFTISRDNAKNTVYLQMNSLNPEDTAVYYCATRVRTGSVGNFNYWGQGTQVTVSS” it is “high polyreactivity”; for “QVQLVESGGGLVQAGGSLRLSCAASGLTFRVYAMGWYRQAPGKERELVAAITGGGGSTYADSVKGRFTISRDNAKNTVYLQMNSLKPEDTAVYYCAAASPWDRDDYWGQGTQVTVSS” it is “low polyreactivity”.
Then “QVQLVESGGGLVQAGGSLRLSCAASGSTFGGYVMGWYRQAPGKERELVAAISGNGASTTYADSVKGRFTISRDNAKSTFYLQLNSVKPEDTAVYYCGAMYRKAHSDYDYWGQGTQVTVSS”, with “low polyreactivity”; and “QVQLVESGGGLVQAGGSLRLSCAASGINFYSYAMGWYRQAPAKERELVAAITLTVGTTYYADSVKGRFTISRDIEKNTVSLKMNSVKREDTACYYCAAQYWWWSRFEYESWGQGTQVTVSS”, with “low polyreactivity”; and “QVQLVESVGGLVQAGGSLRLSCAASGYIFDRNAMGWYRQAPGKERELVAAITKRGGITYYADSVKGRFTISRDNAKNTVYLQMNSLKPEDTAVYYCNALARSSRYDYWGQGTQVTVSS”, with “low polyreactivity”.
Then “QVQLVESGGGLVQAGGSLRLSCAASGSTFGGNAMGWYRQAPGKERELVASISSSGGRTYYADSVKGRFTISRDNAKNTVYLQMNSLKPEDTAVYYCAAKAWYPRVGFLRGGYWGQGTQVTVSS”, with “high polyreactivity”; and “QVQLVESGGGIVQAGGSLRLSCAASGRIFGIYAMGWYRQAPGKERELVASITDGTITNYADSVKGRFTISRDNAKYTVYLQMNSLKPEDTAVYYCAAGTQAHAYVVRPIEMDYWGQGTQVTVSS”, with “low polyreactivity”.
“QVQLVESGGGLVQAGGSLRLSCAASGFTFRHYAMGWYRQAPGKERELVAGITIRGTTYYADSVKGRFTISRDNAKNTVYLQMNSLKPEDTAVYYCAAAWRLGHLRFNSWGQGTQVTVSS”: the “polyreactivity (PSR sort gate)” value is “high polyreactivity”.
The entry for “QVQLVESGGGLVQAGGSLRLSCAASGITFVDYDMGWYRQAPGKERELVAAISWSGGSTYYADSVKGRFTISRDNAKNTVYLQMNSLKPEDTAVYYFAAEVIWWVREYYYWGQGTQVTVSS” is “low polyreactivity”.
For “QVQLVESGGGLVQAGGSLRLSCAASGSTFNIYAMGWYRQAPGKEREFVASIRWSGGSTYYADSVKGRFTISRDNAKNTVYLQMNSLKPEDTAVYYCAGRTFWGAYDYWGQGTQVTVSS”, the “polyreactivity (PSR sort gate)” value is given as “high polyreactivity”.
Consider “QVQLVESGGGLVQAGGSLRLSCAASGLTFKWNTMGWYRQAPGKERELVAAISWRVVSTYYADSVKGRFTISRDNAKNTFYLQMNSLKQEDTAVYYDYWGQGTQVTVSS”, for which the “polyreactivity (PSR sort gate)” value is given as “low polyreactivity”.
Then “QFQLVESGGGLVQAGGSLRLSCAASGSTFKYYAKGWYRQAPGKERELVAAISARTGSTYYADSVKGRFTISRDNEKNTVYLQMNILKPEDTAVYYCNKLTWRGEVDYWGQGTQVTESS”, with “high polyreactivity”.
The entry for “QVQLVESGGGLVQAGGSLRLSCAASGNTFYWNAMGWYRQAPGKERELVAAISTTGVSTYYADSVKGRFTISRDNAKNTVYLQMNSLKPEDTAVYYCAAEIIGYHTIYDYWGQGTQVTVSS” is “low polyreactivity”; for “QVHLVESGGGLVQAGGSLRLSCAATGSTFPNAMGWYRQAPGKERELVAAITYGGGSTYYADSVKGRFTISRDNAKNTVYLQMNSLIPEDTAVYYCNAPSRLSTIFYSGYDYWGQGTQVTVSS” it is “low polyreactivity”; for “QVQLVETGGGLDQAGGSLRLRCAASGSIFLIYGMGWYRQAPGKERELDAAITARCGSTYYADSVKGRFTISRDNAKNTVYLLMNSLKPEDTAVYYCAADEYEALGKFQPYQFDYWGQGTQVTVSS” it is “low polyreactivity”.
As for “QVQLVESGGGLVQAGGSLRLSCAASGITFRYYTMGWYRQAPGKERELVAAITTGGSTNYADSVKGRFTISRDNAKNTVYLQMNSLKPEDTAVYYCAATYKYITRGYLYDYWGQGTQVTVSS”, the “polyreactivity (PSR sort gate)” value is “high polyreactivity”.
Consider “QVQLVESGGGLVQAGGSLRLSCAASGRTVSYYAMGWYRQAPGKEREFVAAISSSGGSTNYADSVKGRFTISRDNAKNTVYLQMNSLKPEDTAVYYCNAGSGYTGVYRWYYWRYDYWGQGTQVTVSS”, for which the “polyreactivity (PSR sort gate)” value is “low polyreactivity”.
Then “QVQLVESGGGLVQAGGSLRLSCAASGYTFRYYAMGWYRQAPGKERELVAVISSGGSTKYADSVKGRFTISRDNAKNTVYLQMNSLKPEDTAVYYCAARYRSLYNYWGQGTQVTVSS”, with “high polyreactivity”; and “QVQLEESGGGLVQAGASLRLSCAASGRTFGSYAMGWYRQAPGKERELVAAISLSAGSTYYADSVKGRFTISRDNAKNTVYLQMNSLKPEDTAVYYCAAGTQWYSHVFIYYYWGQGTQVTVSS”, with “low polyreactivity”; and “QVQLVESGGGLVQAGGSLRLSCAASGRTFGTYAMGWYRQAPGKERELVAVITNGGGTYYADSVKGRFTISRDNAKNTVYLQMNSLKPEDTAVYYCNTDRYGLRRWVYSYWGGYDYWGQGTQVTVSS”, with “low polyreactivity”.
The entry for “QVQLVESGGGLVQAGGSLRLSCAASGSILFSYAMGWYIQAPGKEREFVAAITFSGGRTYYADSVKGRFTISRDNAKNTVYLQMNSLKPEDTAVYYCAASYLLIYTQGYRAEYEYWGQGTQVTVSS” is “low polyreactivity”.
Then “QVQLVESGGGLVQAGGSLRLSSAASGFTFIRSTMGWYRQAPGKEREFVAAITWSGDSTYYADSVKGRFTISRDNAKNTVYLQMNSLKPEDTAVYYCAAESDPYSPEYDYWGQGTQVTVSS”, with “low polyreactivity”; and “QVQLVESGGGLVQAGGSLRLSCAASGSTLYRYAMGWYRQAPGKERELVATIRWSGGSTYYADSVKGRFTISRDNAKNTVYLQMNSLKPEDTAVYYCAKRSSYGSSGRYYYWGQGTQVTVSS”, with “high polyreactivity”.
For “QVQLEESGGGLVKAGGSLRLTCAASGIIFVEYAMGWYRQAPGKERELVARIRYSGGSTYYADSVKGRFTISRDNAKNTVYLQMNSLQPEDTAVYYCNALLPYIYDYWGKGTQVTVSS”, the “polyreactivity (PSR sort gate)” value is given as “low polyreactivity”.
The entry for “QVQLVESGGGLVQAGGSLRLSCAASGRIFYIYAMGWYRQAPGKERELVAAISSGGTTNYADSVKGRFTISRDNAKNTVYLQMNSLKPEDTAVYYCAAYWRSRNRFYWGQGTQVTVSS” is “high polyreactivity”; for “QVQLVESGGGLVQAGGSLRLSCAASGRTFDDYAMGWSRQAPGTERELVAAITSGGSTYYADSVKGRFTISRDNAKNTVYLQMNSLKPEDTAVYYCNARSPRPYAYRPYDYWGQGTQVTVSS” it is “low polyreactivity”.
Then “QVQLVESGGGLVQAGGSLRLSCAASGFTFGYYVMGWYRQEPGKERELVAAITVSGASTYYADSVKGRFTISRDNAKNTVYLQMNSLKPEDTAVYYCAKRGYFPALRQSYYYWGQGTQVTVSS”, with “high polyreactivity”.
The entry for “QVQLVESGGGLVKAGGSLRLSRAASGSIFPRYAMGWNRQAPGKERELVAAITSSAASTYYADSVKGRFTISRDNAKNTVYLQMNSLKPEDSAVYYCAASGPWSYWYYYWGQGTQVTVSS” is “low polyreactivity”.
For the sequence “QVQLVESGGGLVQAGGSLRLSCAASGRTFVSYTMVWYRQAPGKERELVAAISSGGSTTYADSVKGRFTISRDNAKNTVYLQKNSLKPEDTAVYYCNARYGWSYWSKYDYWGQGTQVTVSS”, the “polyreactivity (PSR sort gate)” value is listed as “high polyreactivity”.
Regarding “QVQLVESGGGLVQAGGSLRLSCAASGRTLKVYAMGWYRQAPGKERELVAAINNGGSTNYADSVKGRFTISRDNAKNTVYLQMNSLKPEDTAVYYCNAVYYARYRKYTYYYWGQGTQVTVSS”, the “polyreactivity (PSR sort gate)” value is given as “high polyreactivity”.
Then “QVQLVESGGGLVQAGGSLRLSCGSSGSIFKTNAMGWYRQAPGKERELVAANTWRGGSTYYADSVKGRFTNSRDNAKNTVYLQRNSLKPEDTAVYYCAARQYYGAASYRYYYWGQGTQVTVSS”, with “high polyreactivity”; and “QVQLVESGGGLVQAGGSLRLSCAASGSTFRYYVMGWYRQAPWKERELVAGITKSGGNTYYADSVKGRFTISRDNAKNTVYLQMNSLKPEDTAVYYCAARGLWTRGYYYWGQGTQVTVSS”, with “high polyreactivity”.
The entry for “QVQLVESGRGLVQAGGSLRLSCDASGSILRENAMGWSRQAPGKERELVAVITRGGNTYYADSVKGRFTISRDNAKYTFYLQMNSMKREDTAVYYCAAKRRERYGQTYGYWGQGTQVTVSS” is “high polyreactivity”; for “QVQLVESGGGLVQAGGSLRLCCAPSGSIFYGYDMGWYRQAPGKERELVATISWSSGSSTYYADSVKGRFTISRDNAKNTVYLQMNSLKPEDTAVYYCAVDFAIGYRYLGRVDYWGQGTQVTVSS” it is “low polyreactivity”.
Then “QFQLVESGGGLVQAGGSLRLSCAASGSIIWWNAMGWYRQAPGKERELVASIGDSTYYADSVKGRFTISRDNAKNTVYLQMNSLKPEDTAVYYCNAEVLNYLVFGYQLGYDYWGQGTQVTVSS”, with “low polyreactivity”.
In the case of “QVQLVESGGGLDQAGGSLRVSCAASGSTFHRNAMGWYRQAPGKERELVAAITSGGSTNYADSVKGRFTISRDNAKNTVYLQMNSLNPEDTAVYYCAKDYLHYNRGWYDYWGQGTQVTVSW”, the “polyreactivity (PSR sort gate)” value is recorded as “low polyreactivity”.
Then “QVQLVESGGGLVQAGGSLRLSCAASGRIFLRNAMGWYRQAPGKERELVATITSRGGSTYYADSVKGRFTISRDNAKTTVYLQMNSLKPEDTAVYYCAADPRRYRGFGYVYGGFYYWGQGTQVTVSS”, with “low polyreactivity”; and “QVQLVESGGGLVQAGGSLRLSCAASGRTFDRYAMGWYRQAPGKERELVAVIRFIGGSTYYADSVKGRFTISRDNAKNTVYLQMISLKPEDTAVYFCAADATIDWVDYDYWGQGTQVTVSS”, with “low polyreactivity”.
Then “QVQLVESGGGLVQAGGSLRLSCAASGLIFYYYAMGWYRQAPGKERELVAAITRGGRTYYADSVKGRFTISRDNAKNTVYLQMNSLKPEDTAVYYCAAGWYQGFDYWGQGTQVTVSS”, with “high polyreactivity”.
